Measurements taken from patent US9926369B2, “Methods for treating hepatocellular cancer by administering an anti-Ang-2 antibody” (Regeneron Pharmaceuticals, Inc., priority 2009, dated 2018).
Changes are numbered by the printed parent chain.

B1: H2M750N: anti-Ang-2 antibody, HCVR/LCVR SEQ ID NOs 458/466 (antibody, V domains shown)
VH: QVKLVESGGGVVQPGRSLRVSCAASGFTFSSYGMHWVRQAPGKGLEWLAIIWYDGDNKYYSDSVKGRFTISRDNSKNTLYLQMNSLRAEDTAEYYCVRDASIASRFLDYWGQGTLVTVSS
VL: DIQMTQSPSSLSASIGDRVTITCRATQDINNYLAWFQQKPGKAPKSLIYATSNLQSGVPSKFSGSGSGTDYTLTISSLQPEDFSTYYCQQYHSYPLTFGGGTKVEIK
B2: H1H704P: anti-Ang-2 antibody, HCVR/LCVR SEQ ID NOs 186/188 (antibody, V domains shown)
VH: QVQLVESGGDVVQPGRSLRLSCAASGFTFSSYGMHWVRQAPGKGLEWVAIIWYDGSNKYYADSVKGRFTISRDNSKNTLYLQMNSLRVEDTAVYSCARDFSISSRHFDYWGQGTLVTVSS
VL: DIQMTQSPSSLSASVGDRVTITCRASQAINNYLAWFQQKPGKAPKSLIYATSNLQSGVPSQFSGSGSGTDYTLTISSLQPEDFATYYCQQYYIYPITFGQGTRLEIK
B3: H1M749N: anti-Ang-2 antibody, HCVR/LCVR SEQ ID NOs 314/322 (antibody, V domains shown)
VH: QVQLVESGGGVVQPGRSLRLSCAASGFTFSSYGMHWVRQAPGKGLEWVAVIWYDEFNKYYADSVKGRFTISRDNSKNTLYLQMNSLRAEDTAVYYCARERESGYSYGFDYWGQGTLVTVSS
VL: EIVMTQSPATLSVSPGERATLSCRAGQSVSSNLAWYQQKPGQAPRLLIYGASTRATGIPARFSGSGSGTEFTLTISSLQSEDFAVYYCQQYNNWWTFGQGTKVEIK
B4: H1H693P: anti-Ang-2 antibody, HCVR/LCVR SEQ ID NOs 90/92 (antibody, V domains shown)
VH: EVQLVESGGGLVQPGESLRLSCAASGFTFSSYAMSWVRQGPGKGLEWVSSISGSGGTTYYADSVEGRFTISRDNSKNTLYLHMNSLRAEDTAVYYCAKDFLDYSTYLAFDLWGQGTMVTVSS
VL: DIQMTQSPSSVSASVGDRVTITCRASQGISSWLAWYQQKPGKAPKLLIYAASSLQSGVPSRFSGSGSGTDFTLTISSLQPEDFATYYCQQANSFPRTFGQGTKVEIK
B5: H2M743N: anti-Ang-2 antibody, HCVR/LCVR SEQ ID NOs 410/418 (antibody, V domains shown)
VH: EVQLLESGGGLVQPGGSLRLSCAASGFTFRKYAMSWVRQAPGKGLEWVSVISVSGGNTYYADSVKGRFTISRDNSKNTLYLQLNSLRAEDTAVYYCAKDLTDIVLMVYVDYWGQGTLVTVSS
VL: B4 VL with G28D, S30D, S31R, S77T, F94L, R96F, Q100G
B6: H2M742N: anti-Ang-2 antibody, HCVR/LCVR SEQ ID NOs 386/394 (antibody, V domains shown)
VH: DVQLLESGGDLVQPGGSLRLSCEASGFTFRNYVMIWVRQAPGKGLEWVSGISNSGGTTHYTDSVKGRFTISRDNSKNTLYLQINSLRAEDTAVYYCAKGYLDTSLIEGNWFDPWGQGTLVTVSS
VL: NIVMTQSPLSLPVTPGEPASISCRSSQSLLHSNGFNYLNWFLQKPGQSPQLLIYLGSNRASGVPDKFSGSGSGTDFTLNINRVEAEDVGIYFCMQTLQTPLTFGGGTKVEIK
B7: H1M724N: anti-Ang-2 antibody, HCVR/LCVR SEQ ID NOs 266/274 (antibody, V domains shown)
VH: QVQLVESGGGVVQPGRSLRLSCAASGFTLSNYGMHWVRQAPGKGLEWVAVIWHDGSNTYYADSVKGRFTISRDNSKNTLYLQMNSLRAEDTAVYYCTREGLDFWSGYYPNWFDPWGQGTLVTVSS
VL: DIQMTQSPSSLSASVGDRVTITCRASQGIRNDLGWYQQKPGKAPKRLIYAASNLQGGVPSRFSGSGSGTEFTLTISSLQPEDFAAYYCLQHNIYPLTFGGGTKVEIK
B8: H1M732N: anti-Ang-2 antibody, HCVR/LCVR SEQ ID NOs 242/250 (antibody, V domains shown)
VH: EVQLVESGGGLVRPGGSLRLSCAASGFTFTNAWMSWVRQAPGKGLEWIGQIKSKTDGGTIDYAAPVKGRFTVSRDDSENTLFLQMNSLKTEDTAVYYCAGNWNYVDFDYWGQGTLVTVSS
VL: B7 VL with G28D, N53S, A85T, I93S, L96F, G100P, E105D

Legend:
[1] = test system: Tie-2 phosphorylation (Ang-2-mediated) in HUVECs; assay: Inhibition of Ang-2-mediated Tie-2 phosphorylation in FOXO1-adenovirus infected HUVECs; format: cell-based, human; details: antibody 0.5 μg/ml
Protocol: Further, the inventors have shown that infection of HUVECs with an adenovirus encoding FOXO1 results in expression and secretion of Ang-2, followed by activation of Tie-2 phosphorylation (Daly et al. 2006 PNAS 103:15491).
Anti-Ang-2 antibodies were tested for their ability to inhibit Tie-2 phosphorylation. Briefly, 7×10^5 HUVECs (Vec Technologies, Rensselaer, N.Y.) were plated in 6 cm cell culture dishes in 3.5 ml of MCDB131 Complete medium (Vec Technologies, Rensselaer, N.Y.). The following day, the cells were washed with Opti-MEM (Invitrogen Corp., Carlsbad, Calif.) and fed with 2 ml of Opti-MEM. […] Cells were then washed with MCDB131 and fed with 2 ml of MCDB131 containing anti-Ang-2 antibodies at a concentration of 0.5 μg/ml. At twenty hours post infection, cells were lysed and subjected to Tie-2 immunoprecipitation as described by Daly et al., Proc. Natl. Acad. Sci. USA 103:15491-15496 (2006). Immunoglobulin was collected on protein A/G beads (Santa Cruz Biotechnology, Santa Cruz, Calif.) for one hour. Beads were washed with cold lysis buffer and resuspended in SDS sample buffer for analysis by western blot with antibodies specific for phosphotyrosine (Millipore, Billerica, Mass.) or Tie-2. Signals were detected using HRP-conjugated secondary antibodies and ECL reagents (GE Healthcare, Piscataway, N.J.). X-Ray films were scanned and the phospho-Tie-2 and Tie-2 signals were quantified using ImageJ software. The phospho-Tie-2/Tie-2 ratios were used to determine the % inhibition for each anti-Ang-2 antibody (i.e. Percent inhibition=Reduction in phospho-Tie-2/Tie-2 as compared to control).

[2] = test system: PC3 (Human Prostate Cancer Cell Line) tumors; assay: PC3 mouse tumor model; format: in vivo, NCr nude mice; details: PC3, 2 mg/kg twice per week
Protocol: Briefly, 5×10^6 PC3 cells in 100 μl of growth factor-reduced Matrigel (BD Biosciences) were injected subcutaneously into the flanks of 6-8 week old male NCr nude mice (Taconic, Hudson, N.Y.). After tumor volumes reached an average of about 200 mm^3, mice were randomized into groups for treatment. […] Tumor volumes were measured twice per week over the course of the experiment and tumor weights were measured upon excision of tumors at the conclusion of the experiment. Averages (mean+/−standard deviation) of tumor weight and growth were calculated for each treatment group. Percent decrease of tumor weight and growth were calculated from comparison to Fc protein measurements.

[3] = test system: COLO 205 (Human Colorectal Adenocarcinoma Cell Line) tumors; assay: COLO 205 mouse tumor model; format: in vivo, mice; details: COLO 205, NCr nude mice, 4 mg/kg intraperitoneal twice per week; for Avg Tumor Weight: approximately two weeks
Protocol: Briefly, 2×10^6COLO 205 cells in 100 μl of serum-free medium were injected subcutaneously into the flank of 6-8 week old male NCr nude mice (Taconic, Hudson, N.Y.). After tumor volumes reached an average of about 150 mm^3, mice were randomized into groups for treatment with antibody or Fc protein. Mice in each treatment group were administered an anti-Ang-2 antibody or Fc protein at a concentration of 4 mg/kg via intraperitoneal injection twice per week for approximately two weeks. Tumor volumes were measured twice per week over the course of the experiment and tumor weights were measured upon excision of tumors at the conclusion of the experiment. Averages (mean+/−standard deviation) of tumor weight and growth were calculated for each treatment group. “Avg. Tumor Growth” represents the average growth from the time of treatment initiation (when tumors were approximately 150 mm^3). Percent decrease of tumor weight and growth are calculated from comparison to Fc protein measurements.
A similar experiment was carried out to assess the effect of H1H685P, in particular, on COLO 205 tumor growth. Briefly, 2×10^6 COLO 205 cells in 100 μl of serum-free medium were implanted subcutaneously into the right hind flank of 9-11 week-old male SCID CB17 mice. When the tumors reached ˜125 mm^3, mice were randomized into 5 groups (n=7-8 mice/group) and treated twice per week with Fc protein (15 mg/kg), H1H685P (5 or 25 mg/kg) or Control II (5 or 25 mg/kg) for a period of 19 days. Tumor volumes were measured twice per week over the course of the experiment and tumor weights were measured upon excision of tumors at the end of the experiment. Averages of tumor weight and growth from the beginning of treatment were calculated for each group. Percent decrease of tumor weight and growth are calculated from comparison to the Fc control group.
To determine the effect of combining an anti-Ang-2 antibody with a VEGF inhibitor on the growth of COLO 205 xenografts, 2×10^6 cells were implanted subcutaneously into the right hind flank of 6-8 week-old female SCID mice. When the tumors reached an average volume of ˜350 mm^3, mice were randomized into 4 groups (n=6 mice/group) and treated with: human Fc protein (7.5 mg/kg), H1H685P (5 mg/kg), VEGF Trap (see U.S. Pat. No. 7,087,411) (2.5 mg/kg) or the combination of H1H685P+VEGF Trap. Mice were given a total of 3 doses over 10 days of treatment. Tumor volumes were measured twice per week over the course of the experiment. Averages of tumor growth from the start of treatment (mean+/−standard deviation) were calculated for each treatment group. Percent decrease of tumor growth was calculated from comparison to the Fc control group.
To test the effect of H1H685P in combination with a chemotherapeutic agent on tumor growth, 2.5×10^6 COLO 205 tumor cells were implanted subcutaneously into the right hind flank of 8-9 week-old male SCID mice. When the tumors reached an average volume of ˜150 mm^3 (day 17 after implantation), mice were randomized into 4 groups (n=5 mice/group) and treated as follows: the first group was treated sc with 15 mg/kg hFc and intraperitoneally (ip) with 5-FU vehicle; the second group was treated sc with 15 mg/kg of H1H685P; the third group was treated ip with 75 mg/kg of 5-FU; the fourth group was treated with the combination of 15 mg/kg H1H685P sc plus 75 mg/kg 5-FU ip. Mice received a total of three treatments, administered every 3-4 days. Tumor volumes were measured twice per week over the course of the experiment. Average (mean+/−standard deviation) tumor growth from the beginning of treatment until day 38 was calculated for each group. Percent decrease of tumor growth was calculated from comparison to the control group.

Molecule | Inhibition of Tie-2 phosphorylation [1] | Inhibition of Tie-2 phosphorylation (in words) [1] | % Decrease in Tumor Growth [2] | % Decrease in Tumor Weight [2] | Avg Tumor Growth [2] | Avg Tumor Weight [2] | % Decrease in Tumor Growth [3] | % Decrease in Tumor Weight [3] | Avg Tumor Growth [3] | Avg Tumor Weight [3]
B1 | +++ (75-100%) | Especially robust inhibition | 52% | 37% | 227 ± 195 mm^3 | 0.348 ± 0.128 g | – | – | – | –
B2 | +++ (75-100%) | Especially robust inhibition | – | – | – | – | – | – | – | –
B3 | ++ (50-75%) | – | 54% | 31% | 220 ± 261 mm^3 | 0.383 ± 0.275 g | 39% | 29% | 449 ± 169 mm^3 | 0.603 ± 0.142 g
B4 | +++ (75-100%) | Especially robust inhibition | – | – | – | – | – | – | – | –
B5 | +++ (75-100%) | – | 50% | 41% | 179 ± 169 mm^3 | 0.372 ± 0.122 g | – | – | – | –
B6 | ++ (50-75%) | – | – | 35% | 220 ± 102 mm^3 | 0.407 ± 0.076 g | 42% | 32% | 427 ± 92 mm^3 | 0.576 ± 0.057 g
B7 | +++ (75-100%) | Especially robust inhibition | – | – | – | – | 54% | 37% | 336 ± 125 mm^3 | 0.531 ± 0.103 g
B8 | ++ (50-75%) | – | – | – | – | – | – | – | – | –
